In the supplement of paper PMC12764529:
± gives the half width of the 95% confidence interval.

Tests used:
[1] = folding stability dG unfold from chymotrypsin proteolysis; higher = more stable
Procedure: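 Folding stability of de novo designed mini-proteins (<80 aa, no Cys; designed by TrROS, TrMRF, ProteinMPNN and the joint model) was measured by cDNA display proteolysis with trypsin and chymotrypsin. Each protease was used at 11 concentrations in a threefold dilution series plus a no-protease condition. K50 was inferred by Bayesian fitting of sequencing counts, and dG unfold was derived against a sequence-predicted unfolded-state K50 (Tsuboyama et al. method). Sequences shown include variable-length N-terminal GS-type padding (SAGGSAGG...) inside a display construct carrying a PA tag. Rows were kept only if the AF2 dimer inter-PAE was >15, to exclude likely homo-oligomers.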

[2] = folding stability dG unfold (combined trypsin and chymotrypsin); higher = more stable
Summary of the method: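 Unfolding free energy was derived, per protease or combined, by relating Bayesian-fitted K50 values from sequencing counts to a sequence-predicted unfolded-state K50 and a shared folded-state K50. The underlying digests exposed cysteine-free mini-proteins under 80 residues, in a PA-tagged cDNA display construct, to trypsin and chymotrypsin at 11 threefold-diluted concentrations and to a no-protease condition. A filter kept only designs with AlphaFold2 dimer inter-PAE above 15.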

Sequence | folding stability dG unfold [1] [kcal/mol] | folding stability dG unfold [2] [kcal/mol]
SAGGSAGGSAGGMILTGDRAEILARLEAEGLGVAEEETVEEGDAPVTPVRVEVPPGAAGSAGGSAGGSAGGS [r10_885_JUSTAS] | 0.972 ± 0.028 | 0.561 ± 0.11
SAGGSAGGSAGGMITVNPRGGTATFTTSSGETTTVPASLADQVRVDTGLPDAPVFTAPPASAGGSAGGSAGG [r7_235_JUSTAS] | 0.183 ± 0.23 | < -1
SAGGSAGGSAGGMKVTVEYPDALSVEVEPDSATTTYPNGSRIVVEAPGVTTYDPLPPERSSAGGSAGGSAGG [r7_30_JUSTAS] | 0.117 ± 0.046 | -0.39 ± 0.24
SAGGSAGGSAGGMLPFEVLEVTTSTGKGKTTRTVLAREPEGPEVVLTFSPASPEEIERLLSAGGSAGGSAGG [r7_365_JUSTAS] | 0.735 ± 0.13 | 0.224 ± 0.13
SAGGSAGGSAGGMNTPIVVETEDLPSSRPVEEVKAEAAPKGYTEVKAYPDGTVVITKVRSSAGGSAGGSAGG [r11_961_JUSTAS] | 0.607 ± 0.047 | 0.164 ± 0.21
SAGGSAGGSAGGMPSSVVINLNLSKEEIEAIKKGKPVSPELKPAIEEAKKEGLKVEIKKSAGGSAGGSAGGS [r10_890_JUSTAS] | 0.796 ± 0.037 | 0.309 ± 0.13
SAGGSAGGSAGGMPVPRRLEIVVEPEYTEEEIEKIKKELIENGNPEIEEVVVVLPPNLESAGGSAGGSAGGS [r10_233_JUSTAS] | 0.285 ± 0.04 | -0.385 ± 0.36
SAGGSAGGSAGGMRITIDDWDPDEGPYRVKVTNPDNNKKKTMPYENLEELAKEGPVEIHRSAGGSAGGSAGG [r7_452_TrROS] | 0.368 ± 0.18 | -0.143 ± 0.13
SAGGSAGGSAGGMTITVPVEGVEEAIEKAKKEHPNTEIKITLLKPGGEKATTRTVKILGSAGGSAGGSAGGS [r10_741_JUSTAS] | -0.403 ± 0.13 | -0.951 ± 0.29
SAGGSAGGSAGGMTLTITDDDPSVGPRTFTLTEPGSSKTTTLTSAEMEALKAAGPVTVAGSAGGSAGGSAGG [r7_452_JUSTAS] | 0.122 ± 0.22 | -0.209 ± 0.23
SAGGSAGGSAGGMTTKYVITVEVPGENRTETIYLDVPPSRPEEAEALAKEISPNAKIERLSAGGSAGGSAGG [r11_250_JUSTAS] | 0.187 ± 0.16 | -0.144 ± 0.29
SAGGSAGGSAGGMTTLVLPAEVEPVPDGVRVRLPDGEDLYVPPGERVERTPDRVEVTLGSAGGSAGGSAGGS [r10_305_JUSTAS] | 0.383 ± 0.058 | -0.448 ± 0.25
SAGGSAGGSAGGMTVTVTVPPEKVEETIKKLGSKAKSVEREVLETPLGEKVAVVTVTLENSAGGSAGGSAGG [r7_904_JUSTAS] | 0.647 ± 0.023 | 0.047 ± 0.093
SAGGSAGGSAGGMVEVLPVPDGSTLERDPAGYVTRYDPATGTATTVPLADVELSPGSPELSAGGSAGGSAGG [r7_656_JUSTAS] | 0.679 ± 0.11 | -0.0715 ± 0.23
SAGGSAGGSAGGMVKKTYEKKKPPGSMEYVTEKEYDPKTNTVKTTTVPVSEYKNIPNKNSAGGSAGGSAGGS [r10_1077_JUSTAS] | -0.0965 ± 0.56 | < -1
SAGGSAGGSAGGNKIHIMMPYDWAEEFANELQQQGIDPDNVKIEVHPMEMPPPPPPGDKSAGGSAGGSAGGS [r10_602_TrROS] | -0.0563 ± 0.11 | < -1
SAGGSAGGSAGGPDVTTSDSVSLERLPDDTIVLRRTTTVTPPTGPPVVTSTTTVLPPSTLSAGGSAGGSAGG [r17_312_JUSTAS] | -0.319 ± 0.41 | < -1
SAGGSAGGSAGGPEIKPFDSLEEVVEEIKKNPNKERIYLLPDSVIYTLKEDKILKIEPLKSAGGSAGGSAGG [r7_532_TrMRF] | -0.105 ± 0.47 | < -1
SAGGSAGGSAGGPERELTVPITTPDGSGKSISAELGEEELEKLIEENPEWKEAIIEARRESAGGSAGGSAGG [r7_637_JUSTAS] | 0.975 ± 0.059 | 0.483 ± 0.11

Sequence | folding stability dG unfold [1] [kcal/mol] | folding stability dG unfold [2] [kcal/mol]
SAGGSAGGSAGGPNWRIITHEIPIKDGEIEINLPEGIKPQSIERNPDDGYIKVSIVIPLSAGGSAGGSAGGS [r10_906_TrROS] | -0.259 ± 0.14 | -0.54 ± 0.15
SAGGSAGGSAGGPPIIEFPIKGDNPEQAKRFAKEVVDLLPDQNPENVDITTTDGWVRITSAGGSAGGSAGGS [r10_182_TrROS] | -0.636 ± 0.67 | < -1
SAGGSAGGSAGGPPNKKFILRIEHPGRPITFPFKSPKGLDEAADKFPDKFGMPPKIEVHPSAGGSAGGSAGG [r7_18_TrROS] | -0.795 ± 0.92 | < -1
SAGGSAGGSAGGPPTTARITLPDGRTYTVPVPVDPTTGTVYVEDIRRAVAPNYTFTIELGSAGGSAGGSAGG [r7_492_TrMRF] | 0.981 ± 0.16 | 0.414 ± 0.14
SAGGSAGGSAGGQPLLARPNDEPIVEVEISETTTLLPNGTVVTTYSVPKKGILTTVTLVSAGGSAGGSAGGS [r10_160_JUSTAS] | -0.703 ± 0.29 | < -1
SAGGSAGGSAGGRIRLRTELLVRREDGSLSRFRETAVFEVEARPRPVPAPRAYRDANGRLVSAGGSAGGSAG [r3_252_TrMRF] | 0.264 ± 0.075 | -0.558 ± 0.13
SAGGSAGGSAGGSDPSATLRVTLTPRTTRTRLVTDEDGVERTYTFGGDGTLSVSLLPSGSAGGSAGGSAGGS [r4_162_TrMRF] | 0.647 ± 0.15 | 0.258 ± 0.091
SAGGSAGGSAGGSKKKKKKPKKVLLVRNKKTKKLYVFKTKEEAKKAGFEIVKDGKIKKKSAGGSAGGSAGGS [r4_306_TrROS_Hall] | 0.258 ± 0.55 | 0.0938 ± 0.41
SAGGSAGGSAGGSKPDPEIEQERNPEKGYRTIKIEFPDKPRTIMVKNLPPDDPALRDAFSAGGSAGGSAGGS [r4_328_TrROS] | -0.0426 ± 0.23 | -0.349 ± 0.18
SAGGSAGGSAGGSKTKTISFPMPWDDIPELAEELKDKGPVTIEHQDPDGNPREFTIPPDSAGGSAGGSAGGS [r4_341_TrROS] | 0.484 ± 0.13 | 0.0258 ± 0.19
SAGGSAGGSAGGSKVNDVTAEKNFLVFTEDGRVLGKGEVERAFAAGAGPIGAVPLPPGASAGGSAGGSAGGS [r4_47_TrMRF] | -0.54 ± 0.23 | < -1
SAGGSAGGSAGGSKVPPGAKITVERHDGGYRTVEIRPPNGKPVEIMMPEDDADEIADQISAGGSAGGSAGGS [r4_16_TrROS] | -1.26 ± 0.82 | < -1
SAGGSAGGSAGGSMTVTETRYVGTDPATGVATTLSTYRDASGTPGLVTTYPGGAVTVALSAGGSAGGSAGGS [r4_35_JUSTAS] | 0.0995 ± 0.26 | -0.312 ± 0.28
SAGGSAGGSAGGSMVPVPVNILKLAPGGIPLGTYPVEPLRKEGISPEEFAKKNGYIISGSAGGSAGGSAGGS [r10_153_JUSTAS] | -0.0261 ± 0.3 | -0.827 ± 0.26
SAGGSAGGSAGGSNPNKPKEFYRIEYTHGGKPHTHMFPPNEPIPPGPNMKVDPFPADDLSAGGSAGGSAGGS [r4_107_TrROS] | -0.131 ± 0.23 | -0.688 ± 0.69
SAGGSAGGSAGGSPFWRIKIENPGNGKEITVMVPPDDIDKAKEEAEQEGLKKIEIEPVPSAGGSAGGSAGGS [r4_102_TrROS] | -0.0872 ± 0.3 | -0.993 ± 0.7
SAGGSAGGSAGGSPLTLTRTLTLTRTTTDPDVPGTTTTETRTLTLTTELTLPPLPPGTPSAGGSAGGSAGGS [r4_231_TrROS_Hall] | 0.588 ± 0.18 | < -1
SAGGSAGGSAGGSPRHYYVEIEFPNGRKMSIPIESPEEALDYLEDHNYPIKDVELHPLKSAGGSAGGSAGGS [r4_213_TrROS] | 0.0167 ± 0.25 | -0.323 ± 0.41
